Test results published in publication PMC10229432.

Assays:
[1] = target: Epidermal Growth Factor Receptor (EGFR) expressed on the surface of A431 cells (human (endogenous in A431)) (UniProt P00533); assay: on-cell binding assay (cell ELISA, chemiluminescence); as a1, but after the 5 min at 37 °C the plate was irradiated with 365-nm light for 10 min (33 mW per cm2) before washing and fixing; Kd from a sigmoidal nonlinear fit
[2] = target: extracellular domain of EGFR (sEGFR) (UniProt P00533); assay: cross-linking; photocrosslinking in PBS, 10-μl reaction: 10 pmol sEGFR (or BSA) with 100 pmol 7D12 mutant (0-200 pmol in Fig. 2d), 5 min at 37 °C, 365-nm light for 10 min; PNGase F; denaturing SDS-PAGE, Coomassie; percent from band intensities

- Kd [1]: 103 nM
- percent crosslinked to EGFR [2]: 33%
Substance: 7D12-32pcY-109Bpa (VHH)
